*1 amine or outer side, *2 acyl side, *3 side chain or, on linkers, in order; H or OH if unused. Where a SMILES comes first, the peptide text is derived from it. Bridges are numbered along the chain shown (N, C = ends). Roman numbers before positions name the chains, in order. [ ]: non-standard residue; d: D form. X1 = C/C1=C/C(=O)N(O)CCC[C@H](NC(=O)CCN2C(=O)CC([*:2])C2=O)C(=O)OCC/C(C)=C\C(=O)N(O)CCC[C@H](NC(=O)CCN2C(=O)CC([*:1])C2=O)C(=O)OCC/C(C)=C\C(=O)N(O)CCC[C@H](NC(=O)CCCCC[N+]2=C(C=CC3=CC(=CC=C4N(C)c5ccc(S(=O)(=O)[O-])cc5C4(C)C)CCC3)C(C)(C)c3cc(S(=O)(=O)O)ccc32)C(=O)OCC1; Mpa = O=C(O)CCS
Experiments:
in vivo = conditions: mouse
Protocol: All animal experiments were conducted in accordance with regulations and guidelines of the Czech Animal Protection Act (No. 246/1992), and with the approval of the Czech Ministry of Education, Youth, and Sports (MSMT-22421/2013–12), and the institutional Animal Welfare Committee of the Faculty of Medicine and Dentistry of Palacky University in Olomouc. The studies were performed using female 8–10-week-old athymic BALB/c nude mice (Envigo, Horst, The Netherlands). The number of animals was reduced as much as possible (n = 3 per group and time point for all experiments) and retro-orbital (r.o.) tracer injection as well as small animal imaging was carried out under 2% isoflurane anesthesia (FORANE, Abbott Laboratories, Abbott Park, IL, USA) to minimize animal suffering.
Tumor xenografts were established near the front shoulder of mice by subcutaneous injection of 5 × 10^6 cells (U-87 MG) or 2 × 10^6 cells (A431-CCK2R) and the same amount of A431-mock cells as a control in 200 μL appropriate medium and Matrigel (1:1). The tumors were allowed to grow until they had reached a volume of 0.2 to 0.5 cm^3. To evaluate ex vivo biodistribution mice were injected with 1–2 MBq (0.05–0.14 nmol) of radiotracer per mouse and mice were sacrificed by cervical dislocation after 30 and 90 min for [^68Ga]Sulfo-Cy7-FSC-RGD and after 1 and 2 h in the case of [^68Ga]Sulfo-Cy7-FSC-MG. Tumors, blood, muscle tissue, and organs were extracted, weighed, and activity uptake of the samples was measured in the gamma counter. Results were expressed as percentage of injected dose per gram tissue (% ID/g). In vivo PET and CT images were acquired with an Albira PET/SPECT/CT small animal imaging system (Bruker Biospin Corporation, Wood-bridge, CT, USA). Xenograft bearing mice were injected with radiolabeled peptides in a dose of ~5 MBq corresponding to 1–2 μg (0.25–0.58 nmol) of peptide per mouse. Anaesthetized animals were positioned prone head first in the Albira system before the start of imaging. Static PET/CT imaging was carried out 30 and 90 min p.i. for [^68Ga]Sulfo-Cy7-FSC-RGD. Animals injected with [^68Ga]Sulfo-Cy7-FSC-MG were imaged 1 and 2 h p.i. A 10 min PET scan (axial FOV 148 mm) was performed, followed by a CT scan (axial FOV 65 mm, 45 kVp, 400 μA, at 400 projections). Scans were reconstructed with the Albira software (Bruker Biospin Corporation, Woodbridge, CT, USA) using the maximum likelihood expectation maximization (MLEM) and filtered backprojection (FBP) algorithms. After reconstruction, acquired data was viewed and analyzed with PMOD software (PMOD Technologies Ltd., Zurich, Switzerland). 3D images were obtained using VolView software (Kitware, Clifton Park, NY, USA). Near-infrared in vivo fluorescence imaging was performed with an In-Vivo MS FX PRO small animal imaging system (Bruker Biospin Corporation, Woodbridge, CT, USA). Sulfo-Cy7-FSC-MG and Sulfo-Cy7-FSC-RGD were injected in a dose of 0.25–0.58 nmol per mouse and after supine head first positioning, imaging was conducted in various time intervals up to 72 h p.i. An appropriate filter set (excitation = 730 nm and emission = 790 nm) was used for acquiring the Sulfo-Cy7-FSC-peptide - fluorescence in vivo. Identical illumination settings (acquisition time = 15 s, filters = 730/790 nm, f-stop = 2.8, field of view = 100 mm, and binning = 4 × 4) were used for acquiring all images, and fluorescence emission was normalized to photons/s/mm^2. Images were acquired and analyzed using Bruker MI SE software (Bruker Biospin Corporation, Woodbridge, CT, USA).

[1] = type: physicochemical; conditions: pH 7.4
Protocol: (§1) [^68Ga]Sulfo-Cy7-FSC-MG and [^68Ga]Sulfo-Cy7-FSC-RGD (6 MBq) were diluted with phosphate buffered saline to a concentration of 1 μM. Subsequently 50 μL of this solution was added to six Eppendorf tubes containing 450 μL PBS and 500 μL octanol. The mixture was vortexed (1400 rpm) at RT for 15 min using a MS 3 basic vortexer (IKA, Staufen, Germany) followed by centrifugation for 2 min at 4500 rpm. Aliquots of 100 μL of both phases were transferred to plastic vials, measured in the γ-counter and logD values were calculated. For stability testing, radiolabeled tracers were diluted with 450 μL fresh human serum and 450 μL PBS as control to a concentration of 2 μM followed by incubation at 37 °C. After 1, 2, and 4 h (n = 3) 50 μL aliquots were precipitated with acetonitrile (1:1) and centrifuged for 2 min at 14 × 10^3 rpm. The supernatant was analyzed by radio-RP-HPLC to evaluate for decomposition and corresponding chromatograms are shown in Supporting Information. For protein binding measurement aliquots were analyzed by size exclusion chromatography using MicroSpin G-50 Columns (Sephadex G-50, GE Healthcare, Vienna, Austria) in triplicates. […] Column and eluate were measured in the γ-counter and percentages of nonprotein bound radiolabeled peptide (column) and protein bound radiotracer (eluate) were calculated.

physchem = type: physicochemical; conditions: buffer or solvent
Protocol: [^68Ga]Sulfo-Cy7-FSC-MG and [^68Ga]Sulfo-Cy7-FSC-RGD (6 MBq) were diluted with phosphate buffered saline to a concentration of 1 μM. Subsequently 50 μL of this solution was added to six Eppendorf tubes containing 450 μL PBS and 500 μL octanol. The mixture was vortexed (1400 rpm) at RT for 15 min using a MS 3 basic vortexer (IKA, Staufen, Germany) followed by centrifugation for 2 min at 4500 rpm. Aliquots of 100 μL of both phases were transferred to plastic vials, measured in the γ-counter and logD values were calculated. For stability testing, radiolabeled tracers were diluted with 450 μL fresh human serum and 450 μL PBS as control to a concentration of 2 μM followed by incubation at 37 °C. After 1, 2, and 4 h (n = 3) 50 μL aliquots were precipitated with acetonitrile (1:1) and centrifuged for 2 min at 14 × 10^3 rpm. The supernatant was analyzed by radio-RP-HPLC to evaluate for decomposition and corresponding chromatograms are shown in Supporting Information. For protein binding measurement aliquots were analyzed by size exclusion chromatography using MicroSpin G-50 Columns (Sephadex G-50, GE Healthcare, Vienna, Austria) in triplicates. First, the columns were centrifuged at 750 rcf for 1 min to remove the storage buffer. After adding 25 μL of incubation solution columns were centrifuged again for 2 min with 2000 rcf. Column and eluate were measured in the γ-counter and percentages of nonprotein bound radiolabeled peptide (column) and protein bound radiotracer (eluate) were calculated.

A431-CCK2R cells = experiment: CCK-2 receptor internalization assay (radioligand); type: cell-based, human; conditions: for unspecific membrane bound amount: blocked with pentagastrin
Protocol: To determine the receptor-mediated radioligand uptake A431-CCK2R cells were seeded into 12-well plates (Nunc, Thermo Scientific) with a density of 2 × 10^6 cells per well and left to grow overnight at 37 °C. At the day of the experiment each well was washed twice with fresh internalization medium (DMEM containing 1% fetal bovine serum) followed by the adjustment to a final volume of 1.2 mL with media. After dividing the plate into an unblocked and blocked compartment (6 wells each) 150 μL PBS/0.5% bovine serum albumin (BSA) solution or 150 μL blocking solution (100-fold molar excess of pentagastrin in PBS/0.5% BSA solution) were added and left for 10 min at room temperature. Hereafter, 150 μL of the radiolabeled peptide (1 nM [^68Ga]Sulfo-Cy7-FSC-MG in PBS/0.5% BSA approximately 3 × 10^4 cpm) was added to each well followed by incubation at 37 °C for 1 and 2 h, respectively. After removal of the supernatant each well was washed two times with 1 mL ice-cold internalization medium and supernatants were collected in plastic vials (wash fraction). For determination of the membrane bound radiotracer cells were incubated twice with 1 mL ice-cold 0.05 M glycine-buffer (pH 2.8) for 5 min collecting the supernatants. Finally, internalized fraction was obtained by lysing the cells with 1 mL of 2 M sodium hydroxide solution (NaOH) two times and collecting the samples. To determine the amount of radiotracer of each fraction all samples were taken for γ-counter measurement against standard solution, i.e., 150 μL radiotracer.

in vitro = in vitro ADME, human; conditions: human, serum
Protocol: as §1

[2] = test system: A431-CCK2R/A431-mock tumor xenograft-bearing BALB/c nude mice; experiment: Static micro-PET/CT imaging, A431-CCK2R/A431-mock xenografts; type: in vivo, mouse; conditions: static PET, 60 and 120 min post-injection
Protocol: All animal experiments were conducted in accordance with regulations and guidelines of the Czech Animal Protection Act (No. 246/1992), and with the approval of the Czech Ministry of Education, Youth, and Sports (MSMT-22421/2013–12), and the institutional Animal Welfare Committee of the Faculty of Medicine and Dentistry of Palacky University in Olomouc. The studies were performed using female 8–10-week-old athymic BALB/c nude mice (Envigo, Horst, The Netherlands). […]
Tumor xenografts were established near the front shoulder of mice by subcutaneous injection of 5 × 10^6 cells (U-87 MG) or 2 × 10^6 cells (A431-CCK2R) and the same amount of A431-mock cells as a control in 200 μL appropriate medium and Matrigel (1:1). […] Tumors, blood, muscle tissue, and organs were extracted, weighed, and activity uptake of the samples was measured in the gamma counter. Results were expressed as percentage of injected dose per gram tissue (% ID/g). […] After reconstruction, acquired data was viewed and analyzed with PMOD software (PMOD Technologies Ltd., Zurich, Switzerland). […] Near-infrared in vivo fluorescence imaging was performed with an In-Vivo MS FX PRO small animal imaging system (Bruker Biospin Corporation, Woodbridge, CT, USA). […] An appropriate filter set (excitation = 730 nm and emission = 790 nm) was used for acquiring the Sulfo-Cy7-FSC-peptide - fluorescence in vivo. […]

Q: For `CSCC[C@H](NC(=O)[C@H](Cc1c[nH]c2ccccc12)NC(=O)CNC(=O)[C@H](Cc1ccc(O)cc1)NC(=O)[C@H](C)NC(=O)[C@@H](CCC(=O)O)NC(=O)CCSC1CC(=O)N(CCC(=O)N[C@H]2CCCN(O)C(=O)/C=C(/C)CCOC(=O)[C@@H](NC(=O)CCN3C(=O)CC(SCCC(=O)N[C@H](CCC(=O)O)C(=O)N[C@@H](C)C(=O)N[C@@H](Cc4ccc(O)cc4)C(=O)NCC(=O)N[C@@H](Cc4c[nH]c5ccccc45)C(=O)N[C@@H](CCSC)C(=O)N[C@@H](CC(=O)O)C(=O)N[C@@H](Cc4ccccc4)C(N)=O)C3=O)CCCN(O)C(=O)/C=C(/C)CCOC(=O)[C@@H](NC(=O)CCCCC[N+]3=C(C=CC4=CC(=CC=C5N(C)c6ccc(S(=O)(=O)[O-])cc6C5(C)C)CCC4)C(C)(C)c4cc(S(=O)(=O)O)ccc43)CCCN(O)C(=O)/C=C(/C)CCOC2=O)C1=O)C(=O)N[C@@H](CC(=O)O)C(=O)N[C@@H](Cc1ccccc1)C(N)=O` (stereo partly drawn) [[^68Ga]Sulfo-Cy7-FSC-MG, metal not drawn] (I: [Mpa][dE]AYGWMDF-NH2 / II: [Mpa][dE]AYGWMDF-NH2; linker I:1-II:1 via X1), which tissue to tissue ratio (in vivo; female, athymic BALB/c nude, total radioactivity) is on record?
A: Its tissue to tissue ratio is < 0.5.

Q: And the tissue uptake at 2 h (in vivo; accumulation in kidneys)?
A: Its tissue uptake at 2 h is 71.1 ± 7 %ID/g.

Q: What about the tissue uptake at 2 h (in vivo; accumulation in liver tissue) of the same molecule?
A: The tissue uptake at 2 h was 25.7 ± 3.3 %ID/g.

Q: And the tissue uptake at 1 h (in vivo; blood)?
A: Its tissue uptake at 1 h is 4.7 ± 0.7 %ID/g.

Q: And the tissue uptake at 2 h (in vivo; blood)?
A: The tissue uptake at 2 h was 3 ± 0.5 %ID/g.

Q: What about the tissue uptake at 1 h (in vivo; tumor uptake) of the same molecule?
A: Its tissue uptake at 1 h is 3.1 ± 0.9 %ID/g.

Q: What about the tissue uptake at 2 h (in vivo; tumor uptake) of the same molecule?
A: The tissue uptake at 2 h was 3.8 ± 0.7 %ID/g.

Q: And the logD [1]?
A: Its logD is -1.9 ± 0.17.

Q: And the remaining at 1 h, 2 μM (physchem)?
A: Its remaining at 1 h, 2 μM is 95.1 ± 0.2%.

Q: What about the remaining at 2 h, 2 μM (physchem) of the same molecule?
A: The remaining at 2 h, 2 μM was 94.9 ± 0.4%.

Q: And the remaining at 4 h, 2 μM (physchem)?
A: The remaining at 4 h, 2 μM was 94.4 ± 0.1%.

Q: And the internalized activity (A431-CCK2R cells; blocked with pentagastrin in 100-fold molar excess, 1 h)?
A: Its internalized activity is 0.19 ± 0.1%.

Q: And the internalized activity (A431-CCK2R cells; blocked with pentagastrin in 100-fold molar excess, 2 h)?
A: Its internalized activity is 0.44 ± 0.41%.

Q: What about the “unspecific membrane bound amount” value (A431-CCK2R cells; 1 h) of the same molecule?
A: The value was 0.13 ± 0.06%.

Q: What about the “unspecific membrane bound amount” value (A431-CCK2R cells; 2 h) of the same molecule?
A: The value was 0.25 ± 0.23%.

Q: What about the “unspecific membrane bound amount of activity” value (A431-CCK2R cells; unblocked, 1 h) of the same molecule?
A: Its value is 0.21 ± 0.08%.

Q: And the internalized activity (A431-CCK2R cells; unblocked, 1 h incubation)?
A: The internalized activity was 4.56 ± 0.39 % of total activity.

Q: And the “unspecific membrane bound amount of activity” value (A431-CCK2R cells; unblocked, 2 h)?
A: The value was 0.31 ± 0.29%.

Q: What about the internalized activity (A431-CCK2R cells; unblocked, 2 h incubation) of the same molecule?
A: The internalized activity was 8.75 ± 1.32 % of total activity.

Q: And the fraction unbound at 2 μM (in vitro)?
A: The fraction unbound at 2 μM was < 0.3.

Q: What about the PET target-to-organ contrast [2] of the same molecule?
A: Its PET target-to-organ contrast is “moderate target-to-organ contrast”.

From publication PMC5481817, “Developing Targeted Hybrid Imaging Probes by Chelator Scaffolding” (Bioconjugate chemistry, 2017)
